Data taken from patent publication US20230330253A1 (LANOVA MEDICINES, published 2023).

Key:
Test in all cases: cell-based or functional assay
[1] = target: human claudin 18.2 (CLDN18.2) (human)
[2] = target: human claudin 18.2 (CLDN18.2) (human); remark: listed apart in the source
[3] = target: human claudin 18.2 (CLDN18.2) (human); remark: listed apart in the source

EC50, ADCC Reporter Bioassay (luciferase, Jurkat FcγRIIIa V158/NFAT effector cells) [1] [nM]	EC50, ADCC Reporter Bioassay (luciferase) [2] [nM]	Fluorescence, pHAb internalization on MKN45-CLDN18.2 cells, 20 nM antibody, normalized by DAR [3]	Fluorescence, pHAb internalization on MKN45-CLDN18.2 cells, 100 nM antibody, normalized by DAR [3]	Binder
–	0.191	26200	36500	72C1B6A3 HC WT-LC S32A (BG2001-D) (humanized, PTM de-risked, No. 5) (antibody, V domains shown) VH: QVQLVQSGAEVKKPGASVKVSCKASGYTFTTYPIEWVRQAPGQRLEWMGNFHPYNDDTKYNEKFKGRVTITRDTSASTAYMELSSLRSEDTAVYYCARRAYGYPYAMDYWGQGTLVTVSS VL: DIVMTQSPDSLAVSLGERATINCKSSQSLLNAGNQKNYLTWYQQKPGQPPKLLIYRASSRESGVPDRFSGSGSGTDFTLTISSLQAEDVAVYYCQNDYIYPYTFGGGTKLEIK
–	0.493	–	–	120B7B2 HC G57D&S104A-LC-N96E&N31E (humanized, PTM de-risked, No. 6) (antibody, V domains shown) VH: QVQLVQSGAEVKKPGASVKVSCKASGYTFTGYIIQWVRQAPGQRLEWMGFINPYNDDTKYNEQFKGRVTITRDTSASTAYMELSSLRSEDTAVYYCARAYFGNAFAYWGQGTLVTVSS VL: DIVMTQSPDSLAVSLGERATINCKSSQSLLESGNQKNYLTWYQQKPGQPPKLLIYWASTRESGVPDRFSGSGSGTDFTLTISSLQAEDVAVYYCQEGYYFPFTFGGGTKLEIK
0.0159	–	26800	41100	78E8G9G6 chimeric antibody (antibody, V domains shown) VH: QVQLKESGPGLVAPSQSLSITCTVSGFSLISYGVHWVRQPPGKGLEWLGVIWAGGRTNYNSALMSRLSISKDNSKSQVFLKMNSLQTYDTAMYYCARDRYGGNSLDYWGQGTSVTVSS VL: DIVMTQSPSSLTVTAGEKVTMNCRSIQSLLNSGNQKNYLSWYQQKPGQPPKLLIYWASTRESGVPDRFTGSGSGTDFTLTIRSVLDEDLAVYYCQNSYSYPFTFGSGTKLEMK
0.0463	–	–	–	72C1B6A3 chimeric antibody (antibody, V domains shown) VH: QVQLQQSGGELVKPGASVKMSCKAFGYTFTTYPIEWMKQNHGKSLEWIGNFHPYNDDTKYNEKFKGKAKLTVEKSSSTVYLEVSRLTSDDSAVYYCARRAYGYPYAMDYWGQGTSVTVSS VL: DIVMTQSPSSLTVTAGEKVTMSCKSSQSLLNSGNQKNYLTWYQQRPGQPPKLLIYRASSRESGVPVRFTGSGSGTDFTLTISSVQAEDLAVYYCQNDYIYPYTFGGGTKLEMN
–	–	23500	35800	103H2B4 chimeric antibody (antibody, V domains shown) VH: QVQLQQPGAEPVKPGASVKLSCKASGYSFTNFLTHWVRQRPGQGLEWIGEINPTNGRTYYNEKFKRKATLTVDKSSTTVYMQLSNLTPEDSAVFYCARIYYGNSMDYWGQGTLVTVSA VL: DILMTQSPSSLTVTAGEKVTMSCKSSQSLLNSGNQKNYLTWYQQKPGQSPKLLIYWASTRESGVPDRFTGSGSGTDFTLTISSVQAEDLAVYYCQNNYFYPLTFGVGTKLELK
0.0795	–	23000	41300	103F6D3 chimeric antibody (antibody, V domains shown) VH: QVQLQQSGAELARPGASVKMSCKASGYTFPTYSIHWLKQGPGQGLEWIGYINPNTIYTNYNQKFKYKTTLTADKSSSTAYIQLSSLTSDDSAVYYCAREGYGRGNAMDYWGQGTSVTVSS VL: DIVMTQSPSSQTVTAGEKVTLSCRSSQSLLNGGNQKNYLTWYQQKPGQPPKLLIYWASTRESGVPDRFTGSGSGTYFTFTISSVQAEDLAVYYCQNAYFYPFTFGAGTKLELK
–	–	13200	29900	113E12F7 chimeric antibody (antibody, V domains shown) VH: QVQLKESGPGLVAPSQSLSITCTVTGFSLSSYGVHWVRQPPGKGLEWLGVIWAGGSTNYDSALMSRLSISKDRSKSQVFLKMTSLQTDDTAMYYCARSLYGNSFDHWGQGTTLTVSS VL: DIVMTQSPSSLTVTTGEKVTMSCKSSQSLFNSGNQKNYLTWYQQKPGQPPKLLIYWASTRESGVPDRFTGSGSGTYFTLTISSVQAEDLAVYYCQNNYIYPLAFGTGTKLELK
–	–	15900	37400	111B12D11 chimeric antibody (antibody, V domains shown) VH: QVQLKESGPGLVAPSQSLSITCTVSGFSLTSYGVHWVRQPPGKGLEWLGVIWAGGSTNYDSTLMSRLSISKDRSKSQVFLKMTSLQTDDTAMYYCARSLYGNSFDHWGQGTTLTVSS VL: DIVMTQSPSSLTVTAGEKVTMRCRSSQSLFNSGNQRNYLTWYQQKPGQPPKLLIYWASTRESGVPDRFTGSGSGTDFTLTISSVQAEDLAVYYCQNNYIYPLAFGAGTKLELK
–	–	12300	28000	111E7E2 chimeric antibody (antibody, V domains shown) VH: QVQLKESGPGLVAPSQSLSITCTVSGFSLTSYGAHWVRQPPGKGLEWLGVIWAGGSTNYDSALMSRLSISKDRSKSQVFLKMTSLQTDDTAMYYCARSLYGNSFDHWGQGTTLTVSS VL: DIVMTQSPSSLTVTAGEKVTMSCKSSQSLFNSGNQKNYLTWYQQKPGQPPKLLIYWASTRESGVPDRFTGSGSGTDFTLTISSVQAEDLAVYYCQNNYIYPLAFGAGTKLELK
–	–	17100	33500	100F4G12 chimeric antibody (antibody, V domains shown) VH: EVQLQQSGPELVKPGASVKMSCKASGYTFTGFLMHWVKQKPGQGLEWIGYINPYNDGTKYSERFKGKATLTSDKSSSTAYMELSSLTSDDSAVYYCARLDYGNAMDYWGQGTSVTVSS VL: DIVMTQSPSSLTVTAGEKVTMRCKSTQSLLNSGNQRNYLTWYQQKPGQSPKLLIYWASTRESGVPERFTGSGSGTDFTLTISSVQAEDLAVYYCQNAYYYPLTFGPGTKLERK
0.00581	–	–	–	120B7B2 chimeric antibody (antibody, V domains shown) VH: EVQLQQSGPELVKPGASVKMSCKASGYTFTGYIIQWMKQKPGLGLEWIGFINPYNDGTKYNEQFKGKATLTSDKSSNAAYMELSSLTSEDSAVYYCARAYFGNSFAYWGQGTLVTVSA VL: DIVMTQSPSSLTVTAGEKVTMSCKSSQSLLNSGNQKNYLTWYQQRPGQPPKLLMYWASTRESGVPDRFTGSGSGTDFTLTISSGQAEDLAIYFCQNGYYFPFTFGSGTKLETK

Further lines, the binder ahead of its results:

Binder	EC50, ADCC Reporter Bioassay (luciferase, Jurkat FcγRIIIa V158/NFAT effector cells) [1] [nM]	EC50, ADCC Reporter Bioassay (luciferase) [2] [nM]	Fluorescence, pHAb internalization on MKN45-CLDN18.2 cells, 20 nM antibody, normalized by DAR [3]	Fluorescence, pHAb internalization on MKN45-CLDN18.2 cells, 100 nM antibody, normalized by DAR [3]
4F11E2 chimeric antibody (antibody, V domains shown) VH: DVQLVESGGGLVQPGGSRKLSCAASGFTFSTFGMHWVRQAPEKGLEWVAYITSGNSPIYFTDTVKGRFTISRDNPKNTLFLQMTSLGSEDTAVYYCARSSYYGNSMDYWGQGTSVTVSS VL: DIVMTQSPSSLTVTAGEKVTLTCRSSQSLLNSGNRKNYLTWYQQIPGQPPKLLIYWASTRESGVPDRFTGSGSGTYFTLTISSVQAEDLAVYYCQNAYSYPFTFGSGTKLEKK	0.0222	–	–	–
4F11E2 HC N55Q-LC S32A (humanized, PTM de-risked, No. 2) (antibody, V domains shown) VH: EVQLVESGGGLVQPGGSLRLSCAASGFTFSTFGMHWVRQAPGKGLEWVSYITSGQSPIYFTDTVKGRFTISRDNAKNSLYLQMNSLRAEDTAVYYCARSSYYGNSMDYWGQGTLVTVSS VL: DIVMTQSPDSLAVSLGERATINCRSSQSLLNAGNRKNYLTWYQQKPGQPPKLLIYWASTRESGVPDRFSGSGSGTDFTLTISSLQAEDVAVYYCQNAYSYPFTFGGGTKLEIK	–	0.414	–	–
4F11E2 HC N55E-LC S32A (BG2001-C) (humanized, PTM de-risked, No. 3) (antibody, V domains shown) VH: EVQLVESGGGLVQPGGSLRLSCAASGFTFSTFGMHWVRQAPGKGLEWVSYITSGESPIYFTDTVKGRFTISRDNAKNSLYLQMNSLRAEDTAVYYCARSSYYGNSMDYWGQGTLVTVSS VL: DIVMTQSPDSLAVSLGERATINCRSSQSLLNAGNRKNYLTWYQQKPGQPPKLLIYWASTRESGVPDRFSGSGSGTDFTLTISSLQAEDVAVYYCQNAYSYPFTFGGGTKLEIK	–	0.148	19000	28200
72C1B6A3 HC WT-LC N31E (humanized, PTM de-risked, No. 4) (antibody, V domains shown) VH: QVQLVQSGAEVKKPGASVKVSCKASGYTFTTYPIEWVRQAPGQRLEWMGNFHPYNDDTKYNEKFKGRVTITRDTSASTAYMELSSLRSEDTAVYYCARRAYGYPYAMDYWGQGTLVTVSS VL: DIVMTQSPDSLAVSLGERATINCKSSQSLLESGNQKNYLTWYQQKPGQPPKLLIYRASSRESGVPDRFSGSGSGTDFTLTISSLQAEDVAVYYCQNDYIYPYTFGGGTKLEIK	–	1.65	–	–
64G11B4 chimeric antibody (antibody, V domains shown) VH: QVQLHQSGTELVRPGTSVKVSCKASGYAFTNYLLEWVKQRPGQGLEWIGEINPGNGGSNYNEKFKGKATLTADKSSSTAYMQLSSLTSVDSAVYFCARIYYGNSFAYWGQGTLVTVSA VL: DIVMTQSPSSLTVTAGEKVTMNCKSSQSLLNSGNQRNYLTWYQQKPGQPPKLLIYWASTRESGVPDRFTGSGSGTDFTLTISSVQADDLAVYYCQNDYFYPFTFGAGTNLELK	0.126	–	24000	33700
12F1F4 chimeric antibody (antibody, V domains shown) VH: QVQLKESGPGLVAPSQSLSITCTVSGFSLINYGVSWVRQPPGKGLEWLGVIWGDGNTNYQSALRSRLSIRKDTSKSQVFLKLNSVHTDGTATYYCAKVGRGNAMDHWGQGISVIVSS VL: DIVMTQSPSSLTVTARERVSMTCKSSQSLFNSGNQRNYLTWYQQKPGQPPKLLIYWSSTRESGVPDRFTGSGSGTDFTLTISSVQAEDLAIYFCQNNYYYPFTFGSGTKLEIK	0.0368	–	29500	43900
4F11E2 HC N55Q-LC N31E (humanized, PTM de-risked, No. 1) (antibody, V domains shown) VH: EVQLVESGGGLVQPGGSLRLSCAASGFTFSTFGMHWVRQAPGKGLEWVSYITSGQSPIYFTDTVKGRFTISRDNAKNSLYLQMNSLRAEDTAVYYCARSSYYGNSMDYWGQGTLVTVSS VL: DIVMTQSPDSLAVSLGERATINCRSSQSLLESGNRKNYLTWYQQKPGQPPKLLIYWASTRESGVPDRFSGSGSGTDFTLTISSLQAEDVAVYYCQNAYSYPFTFGGGTKLEIK	–	0.238	–	–
